± gives the standard deviation of the averaged measurements.
Assay: total protein half-life in vivo (active degradation + dilution); higher = more stable protein
[1] = E. coli NCM3722 delta-clpP delta-lon delta-hslV, growth: N-lim chemostat, doubling time 6 h
[2] = wild type E. coli NCM3722, growth: C-lim chemostat, doubling time 6 h
[3] = wild type E. coli NCM3722, growth: P-lim chemostat, doubling time 12 h
[4] = E. coli NCM3722 delta-lon, growth: N-lim chemostat, doubling time 6 h
[5] = E. coli NCM3722 delta-smpB, growth: N-lim chemostat, doubling time 6 h
[6] = wild type E. coli NCM3722, growth: C-lim chemostat, doubling time 3 h
[7] = wild type E. coli NCM3722, growth: C-lim chemostat, doubling time 12 h
[8] = wild type E. coli NCM3722, growth: N-lim chemostat, doubling time 6 h
[9] = wild type E. coli NCM3722, growth: N-lim chemostat, doubling time 12 h
[10] = wild type E. coli NCM3722, growth: P-lim chemostat, doubling time 6 h
[11] = E. coli NCM3722 delta-clpP, growth: N-lim chemostat, doubling time 6 h
[12] = E. coli NCM3722 delta-hslV, growth: N-lim chemostat, doubling time 6 h

Sequence | total protein half-life in vivo [1] | total protein half-life in vivo [2] | total protein half-life in vivo [3] | total protein half-life in vivo [4] | total protein half-life in vivo [5] | total protein half-life in vivo [6] | total protein half-life in vivo [7] | total protein half-life in vivo [8] | total protein half-life in vivo [9] | total protein half-life in vivo [10] | total protein half-life in vivo [11] | total protein half-life in vivo [12]
MTTLTAQQIACVYAWLAQLFSRELDDEQLTQIASAQMAEWFSLLKSEPPLTAAVNELENRIATLTVRDDARLELAADFCGLFLMTDKQAALPYASAYKQDEQEIKRLLVEAGMETSGNFNEPADHLAIYLELLSHLHFSLGEGTVPARRIDSLRQKTLTALWQWLPEFVARCRQYDSFGFYAALSQLLLVLVECDHQNR | 5.85 h | 4.24 h | 9.47 ± 1.7 h | – | – | – | – | – | – | – | – | –
MTTNTHTLQIEEILELLPHRFPFLLVDRVLDFEEGRFLRAVKNVSVNEPFFQGHFPGKPIFPGVLILEAMAQATGILAFKSVGKLEPGELYYFAGIDEARFKRPVVPGDQMIMEVTFEKTRRGLTRFKGVALVDGKVVCEATMMCARSREA [P0A6Q6] | 5.67 ± 0.36 h | 6.1 ± 0.81 h | 13.4 ± 0.14 h | 5.38 ± 0.24 h | 5.504 ± 0.036 h | 2.86 ± 0.45 h | 11.2 ± 0.12 h | 6.23 ± 0.6 h | 11.9 ± 0.43 h | 5.75 ± 0.8 h | – | –
MTTNTVSRKVAWLRVVTLAVAAFIFNTTEFVPVGLLSDIAQSFHMQTAQVGIMLTIYAWVVALMSLPFMLMTSQVERRKLLICLFVVFIASHVLSFLSWSFTVLVISRIGVAFAHAIFWSITASLAIRMAPAGKRAQALSLIATGTALAMVLGLPLGRIVGQYFGWRMTFFAIGIGALITLLCLIKLLPLLPSEHSGSLKSLPLLFRRPALMSIYLLTVVVVTAHYTAYSYIEPFVQNIAGFSANFATALLLLLGGAGIIGSVIFGKLGNQYASALVSTAIALLLVCLALLLPAANSEIHLGVLSIFWGIAMMIIGLGMQVKVLALAPDATDVAMALFSGIFNIGIGAGALVGNQVSLHWSMSMIGYVGAVPAFAALIWSIIIFRRWPVTLEEQTQ | 5.1 ± 0.12 h | – | 8.61 ± 0.96 h | – | 4.997 ± 0.0071 h | – | – | 4.68 h | 7.998 ± 0.022 h | 5.12 ± 0.23 h | 4.77 h | 4.16 h
MTTPLKKIVIVGGGAGGLEMATQLGHKLGRKKKAKITLVDRNHSHLWKPLLHEVATGSLDEGVDALSYLAHARNHGFQFQLGSVIDIDREAKTITIAELRDEKGELLVPERKIAYDTLVMALGSTSNDFNTPGVKENCIFLDNPHQARRFHQEMLNLFLKYSANLGANGKVNIAIVGGGATGVELSAELHNAVKQLHSYGYKGLTNEALNVTLVEAGERILPALPPRISAAAHNELTKLGVRVLTQTMVTSADEGGLHTKDGEYIEADLMVWAAGIKAPDFLKDIGGLETNRINQLVVEPTLQTTRDPDIYAIGDCASCPRPEGGFVPPRAQAAHQMATCAMNNILAQMNGKPLKNYQYKDHGSLVSLSNFSTVGSLMGNLTRGSMMIEGRIARFVYISLYRMHQIALHGYFKTGLMMLVGSINRVIRPRLKLH | 6.51 ± 0.53 h | – | 14.2 ± 0.38 h | 6.332 ± 0.062 h | 5.82 ± 0.36 h | 3.15 ± 0.057 h | 11.78 ± 0.097 h | 6.12 ± 0.28 h | 12.7 ± 0.44 h | 6.07 ± 0.096 h | 6.87 ± 1.2 h | 6.08 ± 0.085 h
MTTQVPPSALLPLNPEQLARLQAATTDLTPTQLAWVSGYFWGVLNQQPAALAATPAPAAEMPGITIISASQTGNARRVAEALRDDLLAAKLNVKLVNAGDYKFKQIASEKLLIVVTSTQGEGEPPEEAVALHKFLFSKKAPKLENTAFAVFSLGDSSYEFFCQSGKDFDSKLAELGGERLLDRVDADVEYQAAASEWRARVVDALKSRAPVAAPSQSVATGAVNEIHTSPYSKDAPLVASLSVNQKITGRNSEKDVRHIEIDLGDSGMRYQPGDALGVWYQNDPALVKELVELLWLKGDEPVTVEGKTLPLNEALQWHFELTVNTANIVENYATLTRSETLLPLVGDKAKLQHYAATTPIVDMVRFSPAQLDAEALINLLRPLTPRLYSIASSQAEVENEVHVTVGVVRYDVEGRARAGGASSFLADRVEEEGEVRVFIEHNDNFRLPANPETPVIMIGPGTGIAPFRAFMQQRAADEAPGKNWLFFGNPHFTEDFLYQVEWQRYVKDGVLTRIDLAWSRDQKEKVYVQDKLREQGAELWRWINDGAHIYVCGDANRMAKDVEQALLEVIAEFGGMDTEAADEFLSELRVERRYQRDVY | 5.2 ± 0.35 h | 4.99 ± 0.42 h | 8.98 ± 1 h | 4.31 ± 0.044 h | 3.24 ± 0.067 h | 2.808 ± 0.02 h | 8.53 ± 0.79 h | 3.58 ± 0.06 h | 5.215 ± 0.029 h | 4.99 ± 0.36 h | 3.456 ± 0.027 h | 3.67 ± 0.1 h
MTTSMLNAKLLPTAPSAAVVVVRVVVVVGNAP | 3.54 h | – | – | – | – | – | – | – | – | – | – | –
MTTVYTLVSWLAILGYWLLIAGVTLRILMKRRAVPSAMAWLLIIYILPLVGIIAYLAVGELHLGKRRAERARAMWPSTAKWLNDLKACKHIFAEENSSVAAPLFKLCERRQGIAGVKGNQLQLMTESDDVMQALIRDIQLARHNIEMVFYIWQPGGMADQVAESLMAAARRGIHCRLMLDSAGSVAFFRSPWPELMRNAGIEVVEALKVNLMRVFLRRMDLRQHRKMIMIDNYIAYTGSMNMVDPRYFKQDAGVGQWIDLMARMEGPIATAMGIIYSCDWEIETGKRILPPPPDVNIMPFEQASGHTIHTIASGPGFPEDLIHQALLTAAYSAREYLIMTTPYFVPSDDLLHAICTAAQRGVDVSIILPRKNDSMLVGWASRAFFTELLAAGVKIYQFEGGLLHTKSVLVDGELSLVGTVNLDMRSLWLNFEITLAIDDKGFGADLAAVQDDYISRSRLLDARLWLKRPLWQRVAERLFYFFSPLL [P0A6H8] | 6.74 ± 0.71 h | 6.636 ± 0.027 h | 13.1 ± 0.13 h | 6.87 ± 0.85 h | 6.25 ± 0.099 h | 3.38 ± 0.26 h | 13.5 ± 0.82 h | 6.16 ± 0.22 h | 13.1 ± 1.4 h | 6.275 ± 0.026 h | – | 7.06 ± 0.36 h
MTVAYIAIGSNLASPLEQVNAALKALGDIPESHILTVSSFYRTPPLGPQDQPDYLNAAVALETSLAPEELLNHTQRIELQQGRVRKAERWGPRTLDLDIMLFGNEVINTERLTVPHYDMKNRGFMLWPLFEIAPELVFPDGEMLRQILHTRAFDKLNKW | – | – | 10.7 h | 4.82 h | – | 3.22 ± 0.3 h | 10.3 h | 3.76 h | – | 5.3 h | 4.02 h | 4.41 h
